According to paper PMC7126683 (Structure (London, England : 1993), 2005):

Molecular target: the molecule itself
Assay: SEC

B1: IBV-N218-329, recombinant C-terminal domain (residues 218-329) of the IBV nucleocapsid protein (domain or fragment, UniProt P69596 218-329, looked up)
chain: KADEMAHRRYCKRTIPPNYRVDQVFGPRTKGKEGNFGDDKMNEEGIKDGRVTAMLNLVPSSHACLFGSRVTPKLQLDGLHLRFEFTTVVPCDDPQFDNYVKICDQCVDGVGT
Question: Which “stoichiometry N” value does the source give for B1 here?
Answer: 2
